Columns and labels:
[1] = target: T1, recombinant cynomolgus monkey CD38-ECD-C-his protein (cynomolgus monkey, UniProt Q5VAN0 45-301); assay: SPR, Fab as analyte, captured cynomolgus CD38-his
T1 construct: made in house; Q5VAN0 residues 43-301 (residue 44 deleted) with C-terminal 6-His; also called cynomolgus monkey CD38-C-His; recombinant cynomolgus monkey CD38 protein

[2] = target: T2, Biotinylated Human CD38 Protein, Avitag, His Tag (Acrobiosystems CD8-H82E7) (human, UniProt P28907 43-300, biotinylated); assay: SPR, Fab as analyte, immobilised biotinylated human CD38;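 note: biacore T200 at 25 °C, single-cycle kinetics with Fab from 7.8 to 2000 nM, 3 min association then 5 min dissociation, fitted with a 1:1 Langmuir model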
T2 construct: bought protein; also called biotinylated recombinant human CD38 protein; human CD38-avi-his

[3] = target: T3, human CD3 on cells (HPB-ALL cells, primary human T cells) (human, UniProt P07766 23-207); assay: flow cytometry, human CD4+ T cells
T3 construct: whole, on cells; only the epsilon chain is written
T3 sequence (P07766 23-207): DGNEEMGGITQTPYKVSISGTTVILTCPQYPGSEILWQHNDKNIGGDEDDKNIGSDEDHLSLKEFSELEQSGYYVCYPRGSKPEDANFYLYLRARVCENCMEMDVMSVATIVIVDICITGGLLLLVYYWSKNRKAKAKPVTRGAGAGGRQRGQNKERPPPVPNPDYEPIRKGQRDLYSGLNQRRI

Row | Binder | binding result [1] | Kd [2] [nM] | Kd [1] [nM] | MFI at 800 nM [3] [MFI]
1 | Anti-CD38-UCP01-D1 Fab (Fab, V domains shown, Fab) VH: QVQLVQSGAEVKKPGSSVKVSCKASGGIFNGYLISWVRQAPGQGLEWMGGIIPVNGLADYAQKFQGRVTITADESTSTAYMELSSLRSEDTAVYYCARTIGRYIIAFDYWGQGTLVTVSS VL: not shown | no binding | 666 |  | 
2 | Anti-CD38-UCP03-C3 Fab (Fab, V domains shown, Fab) VH: QVQLVQSGAEVKKPGSSVKVSCKASGGKFSNYAISWVRQAPGQGLEWMGRIIPQIGDAAYAQKFQGRVTITADESTSTAYMELSSLRSEDTAVYYCARASFLYYSYYFDYWGQGTLVTVSS VL: not shown |  | 117 | 465 | 
3 | Anti-CD38-UCP03-C2 Fab (Fab, V domains shown, Fab) VH: QVQLVQSGAEVKKPGSSVKVSCKASGGTFSNYAISWVRQAPGQGLEWMGGIIPAFGDAGYAQKFQGRVTITADESTSTAYMELSSLRSEDTAVYYCARGRVLYYSYYFDYWGQGTLVTVSS VL: not shown |  | 1390 | 628 | 
4 | Anti-CD38-UCP03-H3 Fab (Fab, V domains shown, Fab) VH: QVQLVQSGAEVKKPGSSVKVSCKASGGVFSQFPISWVRQAPGQGLEWMGGIIAGYGATEYAQKFQGRVTITADESTSTAYMELSSLRSEDTAVYYCARVYGGIDWGQGTLVTVSS VL: not shown |  | 810 | 178 | 
5 | Anti-CD38-UCP02-B7 Fab (Fab, V domains shown, Fab) VH: EVQLVESGGGLVKPGGSLRLSCAASGFSFNEAWMTWVRQAPGKGLEWVGRIKSYSDGGYTGYAAPVKGRFTISRDDSKNTLYLQMNSLKTEDTAVYYCARSPGIPYHYFDVWGQGTLVTVSS VL: not shown |  | 1710 |  | 
6 | Anti-CD38-UCP01-G1 Fab (Fab, V domains shown, Fab) VH: QVQLVQSGAEVKKPGSSVKVSCKASGGGFSKYFITWVRQAPGQGLEWMGGVIPKIGYTSYAQKFQGRVTITADESTSTAYMELSSLRSEDTAVYYCARGSDDYASYSPLDSWGQGTLVTVSS VL: not shown |  | 1120 | 283 | 
7 | Anti-CD3-C1-UCP01-H9 IgG1LALA (antibody, V domains shown, IgG1 LALA) VH: QVQLVQSGAEVKKPGSSVKVSCKASGGKFSRYAISWVRQAPGQGLEWMGGISPHVGYAEYAQKFQGRVTITADESTSTAYMELSSLRSEDTAVYYCARYGYSLYMDIWGQGTLVTVSS VL: not shown |  |  |  | 133000
8 | Anti-CD3-C1-UCP01-E7 IgG1LALA (antibody, V domains shown, IgG1 LALA) VH: QVQLVQSGAEVKKPGSSVKVSCKASGGKFSRYAISWVRQAPGQGLEWMGGINPHLGEAEYAQKFQGRVTITADESTSTAYMELSSLRSEDTAVYYCARYGYSLYMDIWGQGTLVTVSS VL: not shown |  |  |  | 82800
9 | Anti-CD3-C1-UCP01-D1 IgG1LALA (antibody, V domains shown, IgG1 LALA) VH: QVQLVQSGAEVKKPGSSVKVSCKASGGKFSRYAISWVRQAPGQGLEWMGGINPLSDEAQYAQKFQGRVTITADESTSTAYMELSSLRSEDTAVYYCARYGYSLYMDIWGQGTLVTVSS VL: not shown |  |  |  | 52800
10 | Anti-CD3-C1-UCP01-C11 IgG1LALA (antibody, V domains shown, IgG1 LALA) VH: QVQLVQSGAEVKKPGSSVKVSCKASGGKFSRYAISWVRQAPGQGLEWMGGINPHVGAPEYAQKFQGRVTITADESTSTAYMELSSLRSEDTAVYYCARYGYSLYMDIWGQGTLVTVSS VL: not shown |  |  |  | 119000
11 | Anti-CD3-C1-UCP01-D4 IgG1LALA (antibody, V domains shown, IgG1 LALA) VH: QVQLVQSGAEVKKPGSSVKVSCKASGGKFSRYAISWVRQAPGQGLEWMGGINPIRGRPSYAQKFQGRVTITADESTSTAYMELSSLRSEDTAVYYCARYGYSLYMDIWGQGTLVTVSS VL: not shown |  |  |  | 126000
12 | Anti-CD3-C1-UCP01-D6 IgG1LALA (antibody, V domains shown, IgG1 LALA; also called anti-CD3-C1-D6; C1-D6) VH: QVQLVQSGAEVKKPGSSVKVSCKASGGKFSRYAISWVRQAPGQGLEWMGGITALGGYPNYAQKFQGRVTITADESTSTAYMELSSLRSEDTAVYYCARYGYSLYMDIWGQGTLVTVSS VL: not shown |  |  |  | 178000
13 | Anti-CD3-C1-UCP01-B6 IgG1LALA (antibody, V domains shown, IgG1 LALA) VH: QVQLVQSGAEVKKPGSSVKVSCKASGGKFSRYAISWVRQAPGQGLEWMGGISPYQGYASYAQKFQGRVTITADESTSTAYMELSSLRSEDTAVYYCARYGYSLYMDIWGQGTLVTVSS VL: not shown |  |  |  | 109000
14 | Anti-CD38-UCP03-H2 Fab (Fab, V domains shown, Fab) VH: QVQLVQSGAEVKKPGSSVKVSCKASGGEFSIYVISWVRQAPGQGLEWMGRVIPSTGDTNYAQKFQGRVTITADESTSTAYMELSSLRSEDTAVYYCARGKAYYSGWLAIWGQGTLVTVSS VL: not shown |  | 1850 | 672 | 

Continued by falling Kd [2], values first:

Row | binding result [1] | Kd [2] [nM] | Kd [1] [nM] | MFI at 800 nM [3] [MFI] | Binder
15 |  | 437 | 352 |  | Anti-CD38-UCP01-H1 Fab (Fab, V domains shown, Fab) VH: QVQLVQSGAEVKKPGSSVKVSCKASGDFFSGYAINWVRQAPGQGLEWMGRIIPLLGDTYYAQKFQGRVTITADESTSTAYMELSSLRSEDTAVYYCARSAAGWFAYWGQGTLVTVSS VL: not shown
16 |  | 429 | 393 |  | Anti-CD38-UCP01-F1 Fab (Fab, V domains shown, Fab) VH: QVQLVQSGAEVKKPGSSVKVSCKASGGVFSLYTITWVRQAPGQGLEWMGSIIPLLGDPEYAQKFQGRVTITADESTSTAYMELSSLRSEDTAVYYCARYPYPYGSKYFDIWGQGTLVTVSS VL: not shown
17 |  | 410 | 525 |  | Anti-CD38-UCP03-A6 Fab (Fab, V domains shown, Fab) VH: QVQLVQSGAEVKKPGSSVKVSCKASGGDFSLYAISWVRQAPGQGLEWMGGIIPLLGEPVYAQKFQGRVTITADESTSTAYMELSSLRSEDTAVYYCARGHRVYSSSPFDYWGQGTLVTVSS VL: not shown
18 |  | 389 |  |  | Anti-CD38-UCP02-F6 Fab (Fab, V domains shown, Fab) VH: EVQLLESGGGLVQPGGSLRLSCAASGFTFSFYDMSWVRQAPGKGLEWVSAVSLYGDETYYADSVKGRFTISRDNSKNTLYLQMNSLRAEDTAVYYCAREPVSYDYYGSYFDYWGQGTLVTVSS VL: not shown
19 |  | 305 | 188 |  | Anti-CD38-UCP02-C3 Fab (Fab, V domains shown, Fab) VH: QVQLVQSGAEVKKPGSSVKVSCKASGDYFNNYAINWVRQAPGQGLEWMGRIIPFLDDANYAQKFQGRVTITADESTSTAYMELSSLRSEDTAVYYCARATSPLYSYYFDYWGQGTLVTVSS VL: not shown
20 |  | 300 | 195 |  | Anti-CD38-UCP03-E3 Fab (Fab, V domains shown, Fab) VH: QVQLVQSGAEVKKPGSSVKVSCKASGGSFSIYAISWVRQAPGQGLEWMGGIIPNSGDTDYAQKFQGRVTITADESTSTAYMELSSLRSEDTAVYYCARGPYDSYGESYFDYWGQGTLVTVSS VL: not shown
21 |  | 225 | 829 |  | Anti-CD38-UCP03-B6 Fab (Fab, V domains shown, Fab) VH: QVQLVQSGAEVKKPGSSVKVSCKASGGHISNSAINWVRQAPGQGLEWMGRVIPVIDDAYYAQKFQGRVTITADESTSTAYMELSSLRSEDTAVYYCARSRGYYGSFYFDIWGQGTLVTVSS VL: not shown
22 |  | 193 | 102 |  | Anti-CD38-UCP01-B1 Fab (Fab, V domains shown, Fab) VH: QVQLVQSGAEVKKPGSSVKVSCKASGGDFDQYYISWVRQAPGQGLEWMGRIIPTLGDSQYAQKFQGRVTITADESTSTAYMELSSLRSEDTAVYYCARAVIVSPYYYIYVFDVWGQGTLVTVSS VL: not shown
23 |  | 192 | 33.5 |  | Anti-CD38-UCP02-D5 Fab (Fab, V domains shown, Fab) VH: QVQLVQSGAEVKKPGSSVKVSCKASGGIFSVHAIHWVRQAPGQGLEWMGEIIPVIGEADYAQKFQGRVTITADESTSTAYMELSSLRSEDTAVYYCAREQYYYALGGGFDYWGQGTLVTVSS VL: not shown
24 |  | 154 | 2.7 |  | Anti-CD38-UCP02-H1 Fab (Fab, V domains shown, Fab) VH: QVQLVQSGAEVKKPGSSVKVSCKASGDKFNTYAISWVRQAPGQGLEWMGGITPRYDYAHYAQKFQGRVTITADESTSTAYMELSSLRSEDTAVYYCARSWGFRAGYLDYWGQGTLVTVSS VL: not shown
25 |  | 142 | 11 |  | Anti-CD38-UCP03-H5 Fab (Fab, V domains shown, Fab) VH: QVQLVQSGAEVKKPGSSVKVSCKASGGLFSFYAISWVRQAPGQGLEWMGGIIPFFGEPQYAQKFQGRVTITADESTSTAYMELSSLRSEDTAVYYCARGSYRFDVWGQGTLVTVSA VL: not shown
26 |  | 133 | 78 |  | Anti-CD38-UCP02-D1 Fab (Fab, V domains shown, Fab) VH: QVQLVQSGAEVKKPGSSVKVSCKASGGDFDQYYISWVRQAPGQGLEWMGRIIPTLGDSQYAQKFQGRVTITADESTSTAYMELSSLRSEDTAVYYCARAVIVSPYYYIYVFDVWGQGTLVTVSS VL: not shown
27 |  | 110 | 89 |  | Anti-CD38-UCP01-E2 FAB (Fab, V domains shown, Fab; also called anti-CD38-E2; anti-CD38-E2 Fab) VH: QVQLVQSGAEVKKPGSSVKVSCKASGGSFSNYAIGWVRQAPGQGLEWMGRIIPVFGSAHYAQKFQGRVTITADESTSTAYMELSSLRSEDTAVYYCARGLGYYLYSSYYFDIWGQGTLVTVSS VL: not shown
28 |  | 85.3 | 53.5 |  | Anti-CD38-UCP01-C2 Fab (Fab, V domains shown, Fab) VH: QVQLVQSGAEVKKPGSSVKVSCKASGGYLGIYAISWVRQAPGQGLEWMGRIIPILGEADYAQKFQGRVTITADESTSTAYMELSSLRSEDTAVYYCARGGVWWDYWGQGTLVTVSS VL: not shown
29 |  | 71.1 | 55.2 |  | Anti-CD38-UCP02-F5 Fab (Fab, V domains shown, Fab) VH: QVQLVQSGAEVKKPGSSVKVSCKASGGVFSYYTISWVRQAPGQGLEWMGRIIPSLGATHYAQKFQGRVTITADESTSTAYMELSSLRSEDTAVYYCARSDSFYYAYYMDLWGQGTLVTVSS VL: not shown
30 |  | 14.2 | 14 |  | Anti-CD38-UCP02-F2 Fab (Fab, V domains shown, Fab) VH: QVQLVQSGAEVKKPGSSVKVSCKASGDVFSLLAIGWVRQAPGQGLEWMGRIIPSLDATHYAQKFQGRVTITADESTSTAYMELSSLRSEDTAVYYCARGRDVLRSYYFDIWGQGTLVTVSS VL: not shown
31 |  | 0.03 |  |  | Anti-CD38-UCP02-E5 Fab (Fab, V domains shown, Fab) VH: QVQLVQSGAEVKKPGSSVKVSCKASGGGFRHYFISWVRQAPGQGLEWMGGIIPAAATPYYAQKFQGRVTITADESTSTAYMELSSLRSEDTAVYYCARGYWHWFDYWGQGTLVTVSS VL: not shown
